Among the data in article PMC8154254, “On the Track of Long-Range Electron Transfer in B-Type Dye-Decolorizing Peroxidases: Identification of a Tyrosyl Radical by Computational Prediction and Electron Paramagnetic Resonance Spectroscopy” (Biochemistry, 2021) are Km, kcat and kcat/Km values, retold here.

Substrate in this data set: CCn1c(=NN=c2sc3cc(S(=O)(=O)O)ccc3n2CC)sc2cc(S(=O)(=O)O)ccc21
The data set is described as follows: purified protein. Format: biochemical, Klebsiella pneumoniae. Particulars: 40 μM H2O2, 100 nM enzyme, 50 mM phosphate-citrate pH 5.0, room temperature.

A word on the Km: it is the substrate concentration at which the rate is half of its maximum. As a reminder, the kcat is the maximal rate divided by the concentration of active sites. What is called kcat/Km is the turnover number divided by the Michaelis constant.

B1: KpDyP (B-type Klebsiella pneumoniae dye-decolorizing peroxidase) (Klebsiella pneumoniae) (protein)
chain: MSQVQSGILPEHCRAAIWIEANLKGDVNALREASKIFVDNVATFQAKFPDAKLGAVVAFGNNVWRQLSGGEGADELKDFPVYGKGLAPSTQYDLLIHILSARHEVNFSVAQAALAAFGDAIDVKEEIHGFRWVEERDLSGFVDGTENPAGEETRREVAVIKDGVDAGGSYVFVQRWEHNLKQLNRMSVPDQEMMIGRTKDANEEIDGDERPVTSHLSRVDLKEDGKGLKIVRQSLPYGTASGTHGLYFCAYCARLYNIEQQLLSMFGDTDGKRDAMLRFTKPVTGGYYFAPSLERIQAL
notes: recombinant from E. coli BL21 (DE3) Tuner; dimer
With B1, the Km amounted to 20.5 ± 1.9 µM, the kcat came to 3.1 ± 0.1 s⁻¹ and the kcat/Km was 150000 M⁻¹ s⁻¹.
